Laboratory results reported in the supplement of paper PMC11246515.
± gives the standard deviation of the averaged measurements.

Assay: total protein half-life in vivo (active degradation + dilution); higher = more stable protein
[1] = E. coli NCM3722 delta-clpP delta-lon delta-hslV, growth: N-lim chemostat, doubling time 6 h
[2] = E. coli NCM3722 delta-clpP, growth: N-lim chemostat, doubling time 6 h
[3] = E. coli NCM3722 delta-hslV, growth: N-lim chemostat, doubling time 6 h
[4] = wild type E. coli NCM3722, growth: C-lim chemostat, doubling time 3 h
[5] = wild type E. coli NCM3722, growth: C-lim chemostat, doubling time 6 h
[6] = wild type E. coli NCM3722, growth: P-lim chemostat, doubling time 12 h
[7] = E. coli NCM3722 delta-smpB, growth: N-lim chemostat, doubling time 6 h
[8] = wild type E. coli NCM3722, growth: C-lim chemostat, doubling time 12 h
[9] = wild type E. coli NCM3722, growth: N-lim chemostat, doubling time 6 h
[10] = wild type E. coli NCM3722, growth: N-lim chemostat, doubling time 12 h
[11] = wild type E. coli NCM3722, growth: P-lim chemostat, doubling time 6 h
[12] = E. coli NCM3722 delta-lon, growth: N-lim chemostat, doubling time 6 h

MSIPFTRWPEEFARRYREKGYWQDLPLTDILTRHAASDSIAVIDGERQLSYRELNQAADNLACSLRRQGIKPGETALVQLGNVAELYITFFALLKLGVAPVLALFSHQRSELNAYASQIEPALLIADRQHALFSGDDFLNTFVTEHSSIRVVQLLNDSGEHNLQDAINHPAEDFTATPSPADEVAYFQLSGGTTGTPKLIPRTHNDYYYSVRRSVEICQFTQQTRYLCAIPAAHNYAMSSPGSLGVFLAGGTVVLAADPSATLCFPLIEKHQVNVTALVPPAVSLWLQALIEGESRAQLASLKLLQVGGARLSATLAARIPAEIGCQLQQVFGMAEGLVNYTRLDDSAEKIIHTQGYPMCPDDEVWVADAEGNPLPQGEVGRLMTRGPYTFRGYYKSPQHNASAFDANGFYCSGDLISIDPEGYITVQGREKDQINRGGEKIAAEEIENLLLRHPAVIYAALVSMEDELMGEKSCAYLVVKEPLRAVQVRRFLREQGIAEFKLPDRVECVDSLPLTAVGKVDKKQLRQWLASRASA
total protein half-life in vivo [1]: 5.38 h | total protein half-life in vivo [2]: 4.77 h | total protein half-life in vivo [3]: 5.82 h | total protein half-life in vivo [4]: 2.73 ± 0.086 h | total protein half-life in vivo [5]: 5.32 h | total protein half-life in vivo [6]: 10.7 h

MKSTSDLFNEIIPLGRLIHMVNQKKDRLLNEYLSPLDITAAQFKVLCSIRCAACITPVELKKVLSVDLGALTRMLDRLVCKGWVERLPNPNDKRGVLVKLTTGGAAICEQCHQLVGQDLHQELTKNLTADEVATLEYLLKKVLP
total protein half-life in vivo [1]: 4.66 ± 0.39 h | total protein half-life in vivo [2]: 6.71 h | total protein half-life in vivo [3]: > 8 h | total protein half-life in vivo [7]: 4.66 ± 0.12 h | total protein half-life in vivo [5]: 5.68 ± 0.62 h | total protein half-life in vivo [8]: 11.7 ± 2.1 h | total protein half-life in vivo [9]: 4.4 ± 0.066 h | total protein half-life in vivo [10]: 7.75 ± 0.37 h | total protein half-life in vivo [11]: 3.68 h | total protein half-life in vivo [6]: 10.8 h

MANSSSRYSVLTAAHWGPMLVETDGETVFSSRGALATGMENSLQSAVRDQVHSNTRVRFPMVRKGFLASPENPQGIRGQDEFVRVSWDEALDLIHQQHKRIREAYGPASIFAGSYGWRSNGVLHKASTLLQRYMALAGGYTGHLGDYSTGAAQAIMPYVVGGSEVYQQQTSWPLVLEHSDVVVLWSANPLNTLKIAWNASDEQGLSYFSALRDSGKKLICIDPMRSETVDFFGDKMEWVAPHMGTDVALMLGIAHTLVENGWHDEAFLARCTTGYAVFASYLLGESDGIAKTAEWAAEICGVGAAKIRELAAIFHQNTTMLMAGWGMQRQQFGEQKHWMIVTLAAMLGQIGTPGGGFGLSYHFANGGNPTRRSAVLSSMQGSLPGGCDAVDKIPVARIVEALENPGGAYQHNGMNRHFPDIRFIWWAGGANFTHHQDTNRLIRAWQKPELVVISECFWTAAAKHADIVLPATTSFERNDLTMTGDYSNQHLVPMKQVVPPRYEARNDFDVFAELSERWEKGGYARFTEGKSELQWLETFYNVARQRGASQQVELPPFAEFWQANQLIEMPENPDSERFIRFADFCRDPLAHPLKTASGKIEIFSQRIADYGYPDCPGHPMWLEPDEWQGNAEPEQLQVLSAHPAHRLHSQLNYSSLRELYAVANREPVTIHPDDAQERGIQDGDTVRLWNARGQILAGAVISEGIKPGVICIHEGAWPDLDLTADGICKNGAVNVLTKDLPSSRLGNGCAGNTALAWLEKYNGPELTLTAFEPPASS
total protein half-life in vivo [1]: 4.73 ± 0.25 h | total protein half-life in vivo [2]: 3.43 ± 0.21 h | total protein half-life in vivo [3]: 3.62 ± 0.17 h | total protein half-life in vivo [12]: 4.25 ± 0.41 h | total protein half-life in vivo [7]: 3.293 ± 0.026 h | total protein half-life in vivo [4]: 2.4 ± 0.26 h | total protein half-life in vivo [5]: 4.57 ± 0.6 h | total protein half-life in vivo [8]: 7.73 ± 0.2 h | total protein half-life in vivo [9]: 3.56 ± 0.24 h | total protein half-life in vivo [10]: 5.57 ± 0.67 h | total protein half-life in vivo [11]: 3.55 ± 0.4 h | total protein half-life in vivo [6]: 6.319 ± 0.0081 h

MLQHYSVSWKKGLAALCLLAVAGLSGCDQQENAAAKVEYDGLSNSQPLRVDANNHTVTMLVQINGRFLTDDTRHGIVFKDGSNGHKSLFMGYATPKAFYEALKEAGGTPGENMTMDNKETTHVTGSKLDISVNWQGAAKAYSFDEVIVDSNGKKLDMRFGGNLTAAEEKKTGCLVCLDSCPVGIVSNATYTYGAVEKRGEVKFKGNASVLPADNTLATVTFKIAE
total protein half-life in vivo [1]: 5.59 ± 0.95 h | total protein half-life in vivo [2]: 6.08 ± 0.12 h | total protein half-life in vivo [3]: 6.34 ± 0.64 h | total protein half-life in vivo [12]: 6.31 ± 0.53 h | total protein half-life in vivo [7]: 6.66 ± 0.39 h | total protein half-life in vivo [4]: 2.87 ± 0.32 h | total protein half-life in vivo [5]: 6.91 ± 0.16 h | total protein half-life in vivo [9]: 6.55 ± 0.35 h | total protein half-life in vivo [10]: 12.4 ± 0.69 h | total protein half-life in vivo [11]: 4.96 ± 0.71 h | total protein half-life in vivo [6]: 14.84 ± 0.069 h

MNKFLFAAALIVSGLLVGCNQLTQYTITEQEINQSLAKHNNFSKDIGLPGVADAHIVLTNLTSQIGREEPNKVTLTGDANLDMNSLFGSQKATMKLKLKALPVFDKEKGAIFLKEMEVVDATVQPEKMQTVMQTLLPYLNQALRNYFNQQPAYVLREDGSQGEAMAKKLAKGIEVKPGEIVIPFTD [P0AB26]
total protein half-life in vivo [3]: 6.63 ± 0.84 h | total protein half-life in vivo [12]: 6.72 ± 0.38 h | total protein half-life in vivo [7]: 6.38 ± 0.15 h | total protein half-life in vivo [4]: 3.55 ± 0.36 h | total protein half-life in vivo [5]: 5.37 ± 0.43 h | total protein half-life in vivo [8]: 11.9 ± 1.5 h | total protein half-life in vivo [9]: 5.75 ± 0.34 h | total protein half-life in vivo [10]: 13.4 ± 0.43 h | total protein half-life in vivo [11]: 6.01 ± 0.25 h | total protein half-life in vivo [6]: 12.36 ± 0.048 h

MSHHHEGCCKHEGQPRHEGCCKGEKSEHEHCGHGHQHEHGQCCGGRHGRGGGRRQRFFGHGELRLVILDILSRDDSHGYELIKAIENLTQGNYTPSPGVIYPTLDFLQEQSLITIREEEGGKKQIALTEQGAQWLEENREQVEMIEERIKARCVGAALRQNPQMKRALDNFKAVLDLRVNQSDISDAQIKKIIAVIDRAAFDITQLD
total protein half-life in vivo [1]: 4.91 ± 0.66 h | total protein half-life in vivo [3]: 3.22 ± 0.047 h | total protein half-life in vivo [12]: 4.273 ± 0.011 h | total protein half-life in vivo [7]: 3.33 ± 0.41 h | total protein half-life in vivo [4]: 2.55 ± 0.029 h | total protein half-life in vivo [5]: 4.67 ± 0.56 h | total protein half-life in vivo [8]: 8.76 ± 2.2 h | total protein half-life in vivo [9]: 3.65 ± 0.74 h | total protein half-life in vivo [10]: 5.05 ± 0.53 h | total protein half-life in vivo [11]: 4.8 ± 0.27 h | total protein half-life in vivo [6]: 8.64 ± 0.59 h

MRFMQRSKDSLAKWLSAILPVVIVGLVGLFAVTVIRDYGRASEADRQALLEKGNVLIRALESGSRVGMGMRMHHVQQQALLEEMAGQPGVLWFAVTDAQGIIILHSDPDKVGRALYSPDEMQKLKPEENSRWRLLGKTETTPALEVYRLFQPMSAPWRHGMHNMPRCNGKAVPQVDAQQAIFIAVDASDLVATQSGEKRNTLIILFALATVLLASVLSFFWYRRYLRSRQLLQDEMKRKEKLVALGHLAAGVAHEIRNPLSSIKGLAKYFAERAPAGGEAHQLAQVMAKEADRLNRVVSELLELVKPTHLALQAVDLNTLINHSLQLVSQDANSREIQLRFTANDTLPEIQADPDRLTQVLLNLYLNAIQAIGQHGVISVTASESGAGVKISVTDSGKGIAADQLDAIFTPYFTTKAEGTGLGLAVVHNIVEQHGGTIQVASQEGKGSTFTLWLPVNITRKDPQG
total protein half-life in vivo [1]: 5.89 h | total protein half-life in vivo [3]: 6.11 ± 0.45 h | total protein half-life in vivo [7]: 5.27 ± 0.29 h | total protein half-life in vivo [4]: 3.57 ± 0.24 h | total protein half-life in vivo [5]: 4.91 h | total protein half-life in vivo [8]: 13.4 ± 2.7 h | total protein half-life in vivo [9]: 5.12 h | total protein half-life in vivo [10]: 14.1 h | total protein half-life in vivo [6]: 11.4 ± 0.38 h
